From article PMC9887757 come the findings set out here.

Experiment [1] addresses BKPyV VLP genotype III (VP1 virus-like particles) (BK polyomavirus) (UniProt P03088). Nature of the experiment: SPR; avidity. Background: SPR reads the build-up and loss of mass on a sensor chip optically.
The target in experiment [2] is BKPyV VLP genotype Ia (VP1 virus-like particles) (BK polyomavirus) (UniProt P03088). Nature of the experiment: SPR; avidity.
In experiment [3] the target is BKPyV VLP genotype II (VP1 virus-like particles) (BK polyomavirus) (UniProt P03088). Nature of the experiment: SPR; avidity.
The target in experiment [4] is BKPyV VLP genotype IVc2 (VP1 virus-like particles) (BK polyomavirus) (UniProt P03088). Briefly: SPR; avidity.
Experiment [5] deals with BKPyV VLP genotype III (VP1 virus-like particles) (BK polyomavirus) (UniProt P03088). Nature of the experiment: ELISA. A general note: An ELISA detects its analyte on a solid surface through an enzyme-linked reagent.
The target of experiment [6] is BKPyV VLP genotype Ia (VP1 virus-like particles) (BK polyomavirus) (UniProt P03088). Briefly: ELISA.
Experiment [7] has as its target BKPyV VLP genotype II (VP1 virus-like particles) (BK polyomavirus) (UniProt P03088). Nature of the experiment: ELISA.
Experiment [8] addresses BKPyV VLP genotype IVc2 (VP1 virus-like particles) (BK polyomavirus) (UniProt P03088). Nature of the experiment: ELISA.

Chain of BKPyV VLP genotype II (VP1 virus-like particles) (BK polyomavirus) (P03088 whole entry, looked up): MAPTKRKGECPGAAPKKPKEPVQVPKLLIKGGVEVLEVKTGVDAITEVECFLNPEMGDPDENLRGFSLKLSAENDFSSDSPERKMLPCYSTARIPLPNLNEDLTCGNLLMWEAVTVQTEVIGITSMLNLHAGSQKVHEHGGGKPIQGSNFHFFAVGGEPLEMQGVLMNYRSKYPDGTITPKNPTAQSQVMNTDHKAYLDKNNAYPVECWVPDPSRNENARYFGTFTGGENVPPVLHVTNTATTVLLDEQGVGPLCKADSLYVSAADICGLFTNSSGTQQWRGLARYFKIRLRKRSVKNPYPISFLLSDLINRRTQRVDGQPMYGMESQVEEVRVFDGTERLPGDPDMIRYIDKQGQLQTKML
Chain of BKPyV VLP genotype IVc2 (VP1 virus-like particles) (BK polyomavirus) (P03088 whole entry, looked up): as above
Chain of BKPyV VLP genotype Ia (VP1 virus-like particles) (BK polyomavirus) (P03088 whole entry): as the sequence (P03088 whole entry, looked up) above
Chain of BKPyV VLP genotype III (VP1 virus-like particles) (BK polyomavirus) (P03088 whole entry, looked up): as above

In general, EC50 refers to the concentration at which the effect is half-maximal. Low readings indicate an effect from little substance, high ones a need for much substance. Take “antibody 120 (clonotype 120, 41F17-like) (from UniProt P01857)”: the Kd amounted to 0.21 nM in experiment [1], 0.11 nM in experiment [2], 0.16 nM in experiment [3] and 0.86 nM in experiment [4]. In addition, the EC50 in experiment [5] is 0.24 nM; in experiment [6], 0.17 nM; in experiment [7] it was 0.26 nM; in experiment [8] it was 0.19 nM.

With “antibody 160 (clonotype 160, 41F17-like) (from UniProt P01857)”, the Kd in experiment [1] is 0.17 nM; in experiment [2] it was 0.23 nM; in experiment [3] it was 0.28 nM; in experiment [4], 0.27 nM. Further, the EC50 in experiment [5] amounted to 0.13 nM; in experiment [6], 0.14 nM; in experiment [7] it was 0.38 nM; in experiment [8], 0.14 nM.

In the case of “antibody 198 (clonotype 198, 41F17-like) (from UniProt P01857)”, the Kd in experiment [1] came to 0.11 nM; in experiment [2] it was 1.63 nM; in experiment [3], 2.29 nM; in experiment [4], 0.28 nM. The EC50 in experiment [5] worked out at 0.9 nM; in experiment [6] it was 0.54 nM; in experiment [7], 1.41 nM; in experiment [8], 0.43 nM.
